biological target: 14-3-3τ (UniProt P27348); test: split luciferase kinase inhibitor screen; settings: reference: DMSO-treated; sites S127

fold change | other: suppressed fold change | Substance
10.6 | – | YAP (YAP1) 120-134 (from UniProt P46937) API-2 (PKB), 10 μM 4 h
14.4 | – | YAP (YAP1) 120-134 (from UniProt P46937) BIO (GSKa/b), 10 μM 4 h
– | 1.85 | YAP (YAP1) 120-134 (from UniProt P46937) CGK 733 (ATM/ATR), 10 μM 4 h
– | 3.71 | YAP (YAP1) 120-134 (from UniProt P46937) ER 27319 (SYK), 10 μM 4 h
– | 1.73 | YAP (YAP1) 120-134 (from UniProt P46937) GSK650394 (SGK), 10 μM 4 h
6.12 | – | YAP (YAP1) 120-134 (from UniProt P46937) Genistein (EGFR), 10 μM 4 h
16.9 | – | YAP (YAP1) 120-134 (from UniProt P46937) PD 98059 (MEK), 10 μM 4 h
– | 1.73 | YAP (YAP1) 120-134 (from UniProt P46937) PD 407824 (CHK1), 10 μM 4 h
– | 6.51 | YAP (YAP1) 120-134 (from UniProt P46937) Ro 08-2750 (TrkA), 10 μM 4 h
– | 5.21 | YAP (YAP1) 120-134 (from UniProt P46937) Ro 31-8220 (General), 10 μM 4 h
5.88 | – | YAP (YAP1) 120-134 (from UniProt P46937) Ryuvidine (CDK4), 10 μM 4 h
27.9 | – | YAP (YAP1) 120-134 (from UniProt P46937) SU 4312 (VEGFR1/2), 10 μM 4 h

Source: paper PMC5849716
